Values quoted from earlier work, collected in article PMC9434060 (Heliyon, 2022).

Settings: hIntL-1, ligand not given; ref [10]

B1: hIntL-1: Human intelectin-1, disulfide-linked trimeric lectin (protein, UniProt Q8WWA0 19-298, looked up)
Intelectin-1: TDEANTYFKEWTCSSSPSLPRSCKEIKDECPSAFDGLYFLRTENGVIYQTFCDMTSGGGGWTLVASVHENDMRGKCTVGDRWSSQQGSKAVYPEGDGNWANYNTFGSAEAATSDDYKNPGYYDIQAKDLGIWHVPNKSPMQHWRNSSLLRYRTDTGFLQTLGHNLFGIYQKYPVKYGEGKCWTDNGPVIPVVYDFGDAQKTASYYSPYGQREFTAGFVQFRVFNNERAANALCAGMRVTGCNTEHHCIGGGGYFPEASPQQCGDFSGFDWSGYGTHVGYS
For B1, the Kd is given as 85 ± 14 nM.
